Assays:
[1] = target: 3×FLAG-tagged ArgD (N-acetylornithine aminotransferase) of Synechocystis sp. PCC 6803 (Synechocystis sp. PCC 6803) (UniProt P73133); assay: co-IP; f.ArgD or f.AstC purified from the soluble fraction of Synechocystis strains (ΔargD or ΔcphB background; cells with nitrate, without or with 1 mM Orn for 24 h) on anti-FLAG M2 gel, eluted with 3xFLAG peptide; SDS-PAGE, stained, blotted and probed with anti-Gun4 and anti-CphB
[2] = target: 3×FLAG-tagged ArgD (N-acetylornithine aminotransferase) of Synechocystis sp. PCC 6803 (Synechocystis sp. PCC 6803) (UniProt P73133); assay: co-IP; f.ArgD from Synechocystis cells grown with 18 mM nitrate without or with Orn (1 mM for 24 h; 100 μM for 1 h); proteins released from the anti-FLAG resin with 1% SDS instead of FLAG peptide; western blot; WT control
[3] = target: ArgD-6xHis, recombinant Synechocystis ArgD (Synechocystis sp. PCC 6803) (UniProt P73133); assay: isothermal spectral shift assay; 5 nM labeled ArgD or 20 nM labeled Gun4 (Red NHS dye) titrated with a serial dilution of the unlabelled partner; 25 mM Tris, 0.1% Pluronic F-127, pH 8, 25°C; Monolith X; triplicate
[4] = target: T1, ArgD-6xHis, recombinant Synechocystis ArgD (Synechocystis sp. PCC 6803, UniProt P73133 1-429, 2nd Generation Red NHS dye); assay: as above; settings: both partners purified
T1 construct: N-acetylornithine aminotransferase ArgD, Synechocystis sp; PCC 6803, gene slr1022; the recombinant protein produced in E. coli is called full-length where the antibodies are described; Construct pET21a-argD; also called labeled ArgD; source: E. coli BL21 (DE3), pET21a, purified (Ni-NTA); not shown: His6, C-terminal, kept
T1 sequence (looked up): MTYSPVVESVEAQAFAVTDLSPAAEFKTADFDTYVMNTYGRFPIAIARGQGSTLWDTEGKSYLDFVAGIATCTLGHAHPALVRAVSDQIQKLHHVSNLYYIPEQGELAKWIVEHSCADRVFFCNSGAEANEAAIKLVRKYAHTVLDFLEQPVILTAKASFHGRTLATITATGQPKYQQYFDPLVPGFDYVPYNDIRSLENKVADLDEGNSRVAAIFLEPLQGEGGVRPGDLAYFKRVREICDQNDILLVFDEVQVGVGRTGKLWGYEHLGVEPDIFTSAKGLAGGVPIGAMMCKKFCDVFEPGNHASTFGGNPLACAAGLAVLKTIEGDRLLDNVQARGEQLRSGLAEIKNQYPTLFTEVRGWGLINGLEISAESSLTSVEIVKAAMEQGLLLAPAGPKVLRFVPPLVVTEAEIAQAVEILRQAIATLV

[5] = target: Gun4-6xHis, recombinant Synechocystis Gun4 (Synechocystis sp. PCC 6803); assay: as above
[6] = target: the molecule itself; assay: native gel or EMSA; 2D blue native/SDS-PAGE of the f.ArgD anti-FLAG eluate; apparent mass on the BN gel

## Gun4 protein of Synechocystis sp. PCC 6803 (native) (natural protein)
[1]
  fold more Gun4 co-purified with f.ArgD (cells with 1 mM Orn for 24 h against cells without Orn): 6 times
[2]
  fold enrichment of Gun4 in the f.ArgD pull-down (Orn-treated cells against control): > 12 ×
  fold increase of f.ArgD-co-purified Gun4 (1 h feeding with 100 μM Orn against control): 6 times

## Gun4-6xHis, recombinant Synechocystis Gun4 (natural protein)
[3]
  Kd: 55.8 nM

B1: CphB-6xHis, recombinant Synechocystis CphB (enzyme, Synechocystis sp. PCC 6803, UniProt P73832 1-271, looked up)
chain: MPLSSQPAILIIGGAEDKVHGREILQTFWSRSGGNDAIIGIIPSASREPLLIGERYQTIFSDMGVKELKVLDIRDRAQGDDSGYRLFVEQCTGIFMTGGDQLRLCGLLADTPLMDRIRQRVHNGEISLAGTSAGAAVMGHHMIAGGSSGEWPNRALVDMAVGLGIVPEIVVDQHFHNRNRMARLLSAISTHPELLGLGIDEDTCAMFERDGSVKVIGQGTVSFVDARDMSYTNAALVGANAPLSLHNLRLNILVHGEVYHQVKQRAFPRVT
notes: cyanophycinase CphB, Synechocystis sp; PCC 6803, gene slr2001; the recombinant protein produced in E. coli is called full-length where the antibodies are described; Construct pET21a-cphB; source: E. coli BL21 (DE3), pET21a, purified (Ni-NTA); not shown: His6, C-terminal, kept
[4]
  Kd: 29800 ± 960 nM
[5]
  Kd: 2160 nM

B2: cyanophycinase CphB of Synechocystis sp. PCC 6803 (native) (enzyme, UniProt P73832 1-271, looked up)
chain: B1 chain
notes: cyanophycinase CphB, Synechocystis sp; PCC 6803, gene slr2001; printed as 29.4 kDa; Migrated like a large oligomer (>200 kDa) on the BN gel; source: endogenous, Synechocystis soluble fraction
[6]
  binding result: binds

B3: 3×FLAG-tagged ArgD (N-acetylornithine aminotransferase) of Synechocystis sp. PCC 6803 (enzyme, UniProt P73133 1-429, looked up)
chain: T1 sequence (looked up)
notes: N-acetylornithine aminotransferase ArgD, Synechocystis sp; PCC 6803, gene slr1022; synthetic argD gene with optimised codon usage cloned into pPD-NFLAG; f.ArgD printed as 49.8 kDa; also called f.ArgD; source: Synechocystis f.argD+/ΔargD or f.argD+/ΔcphB strain (psbAII promoter), soluble fraction; not shown: 3xFLAG, N-terminal, kept
[6]
  stoichiometry N: 2

Source: publication PMC10783636, “Chlorophyll biosynthesis under the control of arginine metabolism” (Cell Reports, 2023)
